Data on one molecule can be found in PMC13396810, “HELZ is a RNA-DNA helicase that resolves R loops to facilitate homologous recombination repair”.

Data set [1] addresses HELZ WT (insect-purified) (human, UniProt P42694 1-1942). As to the kind of experiment: EMSA; no ATP; 5 nM substrate; EMSA: 10 mM Tris-HCl pH 7.5, 60 mM KCl, 100 ng/ul BSA, 2 U/ul RNaseIN, 1 mM DTT, 30 min on ice, 5% native TAE gel 4 C; pull-down: 10 mM Tris-HCl pH 7.5, 100 mM. The following applies: protein: recombinant; label: Cy5 at 5' end of RNA; 30 bp hybrid S1[16-45] with S2[31-60]; 15 nt 5' RNA overhang; 30 nt 5' and 30 nt 3' DNA overhangs.

For data set [2], the target named is HELZ K674N (insect-purified) (human, UniProt P42694 1-1942, K674N). The experiment in a line: EMSA; no ATP; 5 nM substrate; comparable to WT; EMSA: 10 mM Tris-HCl pH 7.5, 60 mM KCl, 100 ng/ul BSA, 2 U/ul RNaseIN, 1 mM DTT, 30 min on ice, 5% native TAE gel 4 C; pull-down: 10 mM Tris-HCl pH 7.5, 100 mM. The following applies: protein: recombinant; label: Cy5 at 5' end of RNA; 30 bp hybrid S1[16-45] with S2[31-60]; 15 nt 5' RNA overhang; 30 nt 5' and 30 nt 3' DNA overhangs. On the technique in general: Mobility shift assays separate free from complexed probe on a gel.
Sequence of HELZ K674N (insect-purified) (P42694 whole entry K674N): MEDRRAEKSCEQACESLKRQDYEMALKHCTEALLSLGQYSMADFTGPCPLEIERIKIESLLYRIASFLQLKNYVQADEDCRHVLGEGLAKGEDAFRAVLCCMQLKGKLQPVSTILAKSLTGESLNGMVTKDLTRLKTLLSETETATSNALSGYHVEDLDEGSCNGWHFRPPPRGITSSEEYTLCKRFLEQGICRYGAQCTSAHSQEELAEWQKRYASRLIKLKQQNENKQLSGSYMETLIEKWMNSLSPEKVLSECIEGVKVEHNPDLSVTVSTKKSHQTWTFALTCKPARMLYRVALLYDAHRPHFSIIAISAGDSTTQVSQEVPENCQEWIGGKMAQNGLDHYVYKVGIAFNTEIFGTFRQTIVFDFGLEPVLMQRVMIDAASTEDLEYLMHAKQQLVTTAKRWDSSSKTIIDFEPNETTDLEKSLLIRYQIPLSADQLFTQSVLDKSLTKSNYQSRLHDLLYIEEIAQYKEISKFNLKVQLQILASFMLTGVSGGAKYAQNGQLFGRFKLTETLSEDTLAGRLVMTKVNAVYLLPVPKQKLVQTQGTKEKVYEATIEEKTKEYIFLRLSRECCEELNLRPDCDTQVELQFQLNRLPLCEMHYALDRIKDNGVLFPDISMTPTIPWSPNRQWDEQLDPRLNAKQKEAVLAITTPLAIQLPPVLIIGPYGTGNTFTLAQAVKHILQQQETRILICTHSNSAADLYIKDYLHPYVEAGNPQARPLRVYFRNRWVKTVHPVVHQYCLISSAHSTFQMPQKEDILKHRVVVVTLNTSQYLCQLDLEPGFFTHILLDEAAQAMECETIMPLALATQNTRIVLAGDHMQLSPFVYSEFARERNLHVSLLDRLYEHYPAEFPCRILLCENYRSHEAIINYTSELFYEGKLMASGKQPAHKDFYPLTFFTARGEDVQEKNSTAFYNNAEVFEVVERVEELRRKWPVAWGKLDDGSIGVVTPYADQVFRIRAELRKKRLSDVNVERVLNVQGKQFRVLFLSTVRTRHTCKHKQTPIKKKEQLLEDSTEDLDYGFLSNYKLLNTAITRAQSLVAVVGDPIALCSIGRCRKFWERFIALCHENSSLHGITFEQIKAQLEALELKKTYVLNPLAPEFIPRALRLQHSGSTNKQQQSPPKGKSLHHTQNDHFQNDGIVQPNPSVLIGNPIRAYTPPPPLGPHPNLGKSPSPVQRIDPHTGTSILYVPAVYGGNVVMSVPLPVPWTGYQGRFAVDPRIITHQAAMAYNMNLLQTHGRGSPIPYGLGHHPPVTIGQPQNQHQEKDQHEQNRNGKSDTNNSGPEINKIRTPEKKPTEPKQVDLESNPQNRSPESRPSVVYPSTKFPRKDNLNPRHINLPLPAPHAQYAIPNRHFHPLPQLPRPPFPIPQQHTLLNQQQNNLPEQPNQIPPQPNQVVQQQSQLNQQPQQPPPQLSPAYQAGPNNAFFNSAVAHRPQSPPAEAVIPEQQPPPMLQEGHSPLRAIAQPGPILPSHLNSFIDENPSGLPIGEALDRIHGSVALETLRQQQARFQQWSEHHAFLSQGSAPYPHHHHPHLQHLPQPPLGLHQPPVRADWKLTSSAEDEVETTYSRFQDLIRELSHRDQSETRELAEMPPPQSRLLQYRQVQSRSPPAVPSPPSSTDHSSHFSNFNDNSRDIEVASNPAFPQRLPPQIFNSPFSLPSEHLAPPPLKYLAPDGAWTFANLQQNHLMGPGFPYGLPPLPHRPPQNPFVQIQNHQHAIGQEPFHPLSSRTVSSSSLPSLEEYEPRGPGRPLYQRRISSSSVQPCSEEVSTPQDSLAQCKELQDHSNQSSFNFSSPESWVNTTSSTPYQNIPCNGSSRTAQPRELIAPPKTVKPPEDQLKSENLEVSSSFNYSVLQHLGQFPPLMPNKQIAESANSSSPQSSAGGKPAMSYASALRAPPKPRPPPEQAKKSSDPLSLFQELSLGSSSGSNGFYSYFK

Sequence of HELZ WT (insect-purified) (P42694 whole entry): as the sequence (P42694 whole entry K674N) above, with N674K counted along it

B1: RNA/DNA hybrid with 5' ssRNA overhang (EMSA) (DNA:RNA)
RNA: UCGUAGCUCGGGAGUGCACCAGAUUCAGCAAUUAAGCUCUAAGCC
DNA: GTCACTTGATAAGAGGTCATTTGAATTCATGGCTTAGAGCTTAATTGCTGAATCTGGTGCTGGGATCCAACATGTTTTAAATATGCAATG
B1: the binding result in data set [1] and in data set [2] was “binds” in each case.
